The record followed here is patent publication US20160185875A1 (DCB USA, published 2016).

This assay addresses T1, EGFR on EGFR-positive SW480 cells (human, UniProt P00533 25-1210).
T1 construct: whole, on cells; also called epidermal growth factor receptor
The assay can be described thus: cell-based ELISA on EGFR-positive SW480 cells, around 2 hours after MMP2 treatment. As to the method: Briefly, EGFR-positive SW480 cells or HER2-positive SKBr3 cells were seed on a 96-well plate by 10⁵ cells/well using 200 μl of growth medium (DMEM+10% CCS+1% P/S), and incubated at 37° C. overnight.

B1: MMP2-treated IgG1 hinge/MMP2/panitumumab (antibody, V domains shown, not shown: small tags and cut ends)
VH: QVQLVQSGAEVKKPGASVKVSCKASGYTFTSYWMHWVRQAPGQGLEWMGNIYPGSGGTNYAEKFKNRVTMTRDTSISTAYMELSRLRSDDTAVYYCARSGGPYFFDYWGQGTLVTVSS
VL: DIVMTQSPLSLPVTPGEPASISCRSSQNIVHNNGITYLEWYLQKPGQSPQLLIYKVSDRFSGVPDRFSGSGSGTDFTLKISRVEAEDVGVYYCFQGSHIPPTFGQGTKVEIKR
notes: m14 around 2 hours after MMP2 treatment
In the case of B1, the “antigen binding capability (% of parent antibody)” value was about 90%.
